Source: PMC3658131

What was measured:
Assay in all cases: ELISA
[1] = biological target: Bd-cys dimer (affinity-purified cysteine-terminated B-domain, largely dimers linked by a disulfide bond), unlabeled (Staphylococcus aureus)
[2] = biological target: FL-labeled Bd-cys dimer (disulfide-linked dimer of cysteine-terminated B-domain labelled with FITC) (Staphylococcus aureus)
[3] = biological target: Staphylococcus aureus protein A (SpA), wild type, full-length (Staphylococcus aureus) (UniProt P02976)
Sequence of UniProt P02976 (P02976 37-485): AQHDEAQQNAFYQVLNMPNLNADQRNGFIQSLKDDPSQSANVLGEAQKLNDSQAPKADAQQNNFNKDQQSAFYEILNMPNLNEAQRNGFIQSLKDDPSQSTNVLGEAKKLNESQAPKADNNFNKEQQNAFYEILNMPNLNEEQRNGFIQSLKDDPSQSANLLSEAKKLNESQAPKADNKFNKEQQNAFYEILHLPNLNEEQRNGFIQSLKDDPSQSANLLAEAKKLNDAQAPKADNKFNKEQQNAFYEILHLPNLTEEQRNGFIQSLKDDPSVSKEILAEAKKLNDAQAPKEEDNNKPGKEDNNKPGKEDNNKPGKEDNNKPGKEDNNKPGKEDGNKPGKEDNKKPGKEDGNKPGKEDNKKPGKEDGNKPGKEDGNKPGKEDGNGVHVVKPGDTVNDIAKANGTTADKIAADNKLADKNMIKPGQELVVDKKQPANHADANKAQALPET

Substance	net absorbance at 405 nm (net absorbance (405 nm)) [1]	net absorbance at 405 nm (net absorbance (405 nm)) [2]	net absorbance at 405 nm (net absorbance (405 nm)) [3]
HRP-conjugated guinea pig IgG (antibody)	0.85	0.16	0.84
HRP-conjugated rabbit IgG (antibody)	0.98	0.21	1.25
